Data: patent publication US20170095512A1, “METHODS OF INDUCING MYELINATION AND MATURATION OF OLIGODENDROCYTES” (KADIMASTEM LTD., priority 2014, published 2017)

Tests used:
[1] = tested on: hPSC derived oligodendrocytes co-cultured with rodent dorsal root ganglia neurons (MBP+ cells); assay: Co-culture myelination assay (human oligodendrocytes with DRG neurons), MBP staining; type: cell-based; details: 14 days co-culture; Noggin 50 ng/ml; LDN-193189 125 nM
Experimental: ArrayScan VTI HCS reader system (Cellomis, Thermo-scientific) was used for scanning at least 20 fields for each tested well under 10× objective in both assays (differentiation and myelination). Cellomics Neural profiling bio-application was used for processing and analyzing the images. For differentiation assay, the following parameters were tested: number and percentage of O4+ cells, number of processes, processes length and number of branching points. For myelination assay, the same morphological parameters were tested and in addition: areas of myelinated axons in pixels (MBP&NF overlap area) and Number of myelinated regions (MBP&NF overlap count) were also analyzed. Modifications in the Neuro-profiling bio-application were conducted for this specific purpose. T-test analysis was used to compare between treatments. The 4-parameter Hill-Slope curve fittings were generated by GraphPad Prism software using least squares fitting method and EC50 values were calculated. […]
For testing maturation and myelination capacity of the hPSC derived oligodendrocytes, a co-culture system between rodent dorsal root ganglia (DRGs) and hPSCs derived oligodendrocytes was used. The number of MBP+ cells (MBP, a marker of oligodendrocytes' myelin) and Myelin formation (measured by co-localization area between MBP and neurofilament positive neuronal axons) was quantified.

[2] = tested on: glial progenitor cells derived from human ES cells (Olig2 positive cells); assay: hOPC differentiation assay, Olig2 positive cells (immunostaining, high content screening); type: cell-based; details: days 21, 28, 35, 42; noggin 100 ng/ml; LDN-193189 62.5 nM and 125 nM
Experimental: In order to initiate differentiation 20,000 GPCs were seeded in each well of Matrigel coated plates of 96 wells, or on PolyD-Lysine/laminin (PDL/lam)-coated 96 well plates. Cells were grown in GM media for two to three days. Then GM was replaced by differentiation medium without growth factors, (DMEM/F12, 1% B27, 0.5% N2, Vitamin C (Sigma, 50 ug/ml). Differentiation medium was supplemented with the following tested compounds: […] All media were replaced every other day. The oligodendrocyte lineage cells were characterized by the expression of a transcription factor olig2. The rabbit polyclonal AB anti olig2 (Millipore cat AB9610) was added to PFA fixed cells. […] ArrayScan VTI HCS reader system (Cellomis, Thermo-scientific) was used for scanning at least 20 fields for each tested well under 10× objective in both assays (differentiation and myelination). […] For myelination assay, the same morphological parameters were tested and in addition: areas of myelinated axons in pixels (MBP&NF overlap area) and Number of myelinated regions (MBP&NF overlap count) were also analyzed. […] The 4-parameter Hill-Slope curve fittings were generated by GraphPad Prism software using least squares fitting method and EC50 values were calculated. […] Time points used for analysis are 21, 28, 35 and 42 days of differentiation, for each time point 20 fields were analyzed. […]

B1: Noggin: the inhibitor of BMP signaling noggin (R&D) (protein, UniProt Q13253 28-232, looked up)
Noggin: QHYLHIRPAPSDNLPLVDLIEHPDPIFDPKEKDLNETLLRSLLGGHYDPGFMATSPPEDRPGGGGGAAGGAEDLAELDQLLRQRPSGAMPSEIKGLEFSEGLAQGKKQRLSKKLRRKLQMWLWSQTFCPVLYAWNDLGSRFWPRYVKVGSCFSKRSCSVPEGMVCKPSKSVHLTVLRWRCQRRGGQRCGWIPIQYPIISECKCSC
[1]
  Myelin fibers: Myelin fibers are observed
[2]
  conversion of neural stem cells to Olig2 positive cells: stimulate the conversion of neural stem cells to Olig2 positive cells
